Patent US10087225B2, “Formulation of MK2 inhibitor peptides” (MOERAE MATRIX, INC., priority 2015, dated 2018)

Tests used:
Test in all cases: Kinase Profiling Assay
Assay type in all cases: biochemical
Settings in all cases: for % activity: 100 μM
ASK1(h) = target: T1, ASK1(h) (Homo sapiens, UniProt Q99683)
T1 sequence (Q99683 1-1374): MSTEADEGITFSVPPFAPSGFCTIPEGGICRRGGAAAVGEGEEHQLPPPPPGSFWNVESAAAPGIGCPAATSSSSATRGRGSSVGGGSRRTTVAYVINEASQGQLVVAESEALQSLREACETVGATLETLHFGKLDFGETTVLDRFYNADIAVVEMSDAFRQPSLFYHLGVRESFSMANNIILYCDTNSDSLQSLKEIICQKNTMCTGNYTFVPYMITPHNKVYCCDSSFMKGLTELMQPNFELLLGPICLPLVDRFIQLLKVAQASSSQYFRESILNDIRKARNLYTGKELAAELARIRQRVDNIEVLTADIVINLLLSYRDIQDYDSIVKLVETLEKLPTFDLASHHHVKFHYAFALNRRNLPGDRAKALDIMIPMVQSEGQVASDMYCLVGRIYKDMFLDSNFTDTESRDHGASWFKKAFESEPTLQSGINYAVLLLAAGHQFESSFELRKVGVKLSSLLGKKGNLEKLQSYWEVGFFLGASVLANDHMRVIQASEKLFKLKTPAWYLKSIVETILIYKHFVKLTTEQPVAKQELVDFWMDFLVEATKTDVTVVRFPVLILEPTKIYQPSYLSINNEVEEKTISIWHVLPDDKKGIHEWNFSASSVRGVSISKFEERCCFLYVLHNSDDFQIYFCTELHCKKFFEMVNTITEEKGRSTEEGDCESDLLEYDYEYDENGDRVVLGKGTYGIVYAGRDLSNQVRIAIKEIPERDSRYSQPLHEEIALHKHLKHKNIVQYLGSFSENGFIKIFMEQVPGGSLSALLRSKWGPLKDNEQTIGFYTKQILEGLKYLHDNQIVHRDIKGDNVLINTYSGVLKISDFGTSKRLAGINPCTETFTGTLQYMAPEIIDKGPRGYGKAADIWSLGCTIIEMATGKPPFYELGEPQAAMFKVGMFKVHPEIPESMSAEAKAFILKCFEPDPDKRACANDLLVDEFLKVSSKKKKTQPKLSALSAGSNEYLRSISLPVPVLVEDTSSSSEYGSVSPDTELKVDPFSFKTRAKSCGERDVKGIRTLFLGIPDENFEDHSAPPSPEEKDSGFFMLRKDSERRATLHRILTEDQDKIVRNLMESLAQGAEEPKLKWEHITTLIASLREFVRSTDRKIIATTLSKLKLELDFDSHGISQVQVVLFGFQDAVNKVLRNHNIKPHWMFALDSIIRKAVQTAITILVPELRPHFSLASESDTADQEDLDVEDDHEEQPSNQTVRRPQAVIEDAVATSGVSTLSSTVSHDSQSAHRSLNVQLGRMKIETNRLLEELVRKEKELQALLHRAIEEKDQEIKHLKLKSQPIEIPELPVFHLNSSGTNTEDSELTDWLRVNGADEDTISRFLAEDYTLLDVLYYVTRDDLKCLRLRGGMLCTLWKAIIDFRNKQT

SGK3(h) = target: T2, SGK3(h) (Homo sapiens, UniProt Q96BR1)
T2 sequence (Q96BR1 1-496): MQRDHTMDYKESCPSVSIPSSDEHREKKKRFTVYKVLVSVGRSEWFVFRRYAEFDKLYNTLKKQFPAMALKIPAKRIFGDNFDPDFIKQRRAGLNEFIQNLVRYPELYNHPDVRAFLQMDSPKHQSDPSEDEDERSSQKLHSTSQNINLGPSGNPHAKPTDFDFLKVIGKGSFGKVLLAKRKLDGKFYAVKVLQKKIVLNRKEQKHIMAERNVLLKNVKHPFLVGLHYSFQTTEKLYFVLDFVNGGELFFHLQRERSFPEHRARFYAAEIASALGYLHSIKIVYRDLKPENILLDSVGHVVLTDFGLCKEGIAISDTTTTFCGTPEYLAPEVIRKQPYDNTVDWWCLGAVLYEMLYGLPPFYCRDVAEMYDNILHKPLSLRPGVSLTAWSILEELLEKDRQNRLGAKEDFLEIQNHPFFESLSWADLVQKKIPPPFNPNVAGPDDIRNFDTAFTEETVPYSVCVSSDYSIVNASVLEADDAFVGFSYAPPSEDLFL

Tec(h)activated = target: T3, Tec(h)activated (Homo sapiens, UniProt P42680)
T3 sequence (P42680 1-631): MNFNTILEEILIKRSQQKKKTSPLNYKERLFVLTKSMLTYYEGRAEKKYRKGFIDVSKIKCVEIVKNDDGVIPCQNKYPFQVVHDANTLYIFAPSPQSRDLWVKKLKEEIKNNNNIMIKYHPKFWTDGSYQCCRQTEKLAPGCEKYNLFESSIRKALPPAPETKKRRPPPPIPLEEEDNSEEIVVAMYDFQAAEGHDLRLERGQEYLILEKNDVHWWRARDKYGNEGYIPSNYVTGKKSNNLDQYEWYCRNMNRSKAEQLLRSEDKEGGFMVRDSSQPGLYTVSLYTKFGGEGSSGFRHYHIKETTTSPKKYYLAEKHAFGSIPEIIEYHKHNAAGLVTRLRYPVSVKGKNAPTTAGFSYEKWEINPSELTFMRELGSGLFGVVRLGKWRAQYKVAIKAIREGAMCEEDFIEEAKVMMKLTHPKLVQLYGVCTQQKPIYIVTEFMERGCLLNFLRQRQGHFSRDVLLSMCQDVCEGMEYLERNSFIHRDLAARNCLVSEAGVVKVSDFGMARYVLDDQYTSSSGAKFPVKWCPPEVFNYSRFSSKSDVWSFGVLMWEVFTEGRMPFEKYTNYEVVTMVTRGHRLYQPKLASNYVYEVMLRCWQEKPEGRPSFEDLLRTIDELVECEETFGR

Substance | activity at 100 µM (ASK1(h)) | activity at 100 µM (SGK3(h)) | activity at 100 µM (Tec(h)activated) | % activity (ASK1(h)) | % activity (SGK3(h)) | % activity (Tec(h)activated)
H-YARAAARQARAKALARQLGVAA-OH [MMI-0100] | 100% | 95% | 100% |  |  | 
YARAAARQARAKALNRQLGVA (Mammalian) [MMI-0200] |  |  |  | 101% | 58% | 77%
HRRIKAWLKKIKALARQLGVAA (Mammalian) [MMI-0500] |  |  |  | -4% | -3% | 33%
